Reference: article PMC9938795

Biological target: PRKAR2A, regulatory subunit of protein kinase A (NanoBiT positive control) (UniProt P13861)
Test: split reporter

Chain of PRKAR2A, regulatory subunit of protein kinase A (NanoBiT positive control) (P13861 whole entry): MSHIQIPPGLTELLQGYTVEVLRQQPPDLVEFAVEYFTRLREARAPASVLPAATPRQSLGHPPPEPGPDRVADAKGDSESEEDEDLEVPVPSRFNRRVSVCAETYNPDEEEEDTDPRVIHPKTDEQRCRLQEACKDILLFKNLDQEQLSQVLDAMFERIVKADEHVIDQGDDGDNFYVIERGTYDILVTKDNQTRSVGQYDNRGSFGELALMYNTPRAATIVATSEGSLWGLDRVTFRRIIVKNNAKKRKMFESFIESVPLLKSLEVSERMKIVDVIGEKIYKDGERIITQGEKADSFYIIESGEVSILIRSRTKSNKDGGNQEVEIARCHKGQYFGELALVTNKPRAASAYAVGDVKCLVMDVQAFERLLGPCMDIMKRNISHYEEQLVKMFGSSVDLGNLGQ

Substance: PRKACA, catalytic subunit of protein kinase A (NanoBiT positive control) (from UniProt P17612 1-351) (natural protein)
- nanoluciferase activity (RLU): 800000 RLU
